Laboratory results reported in paper PMC2828913.

Molecular target: Collagen matrix (Purecol) (UniProt P02453)
Assay: retention in a polymerised collagen gel

Chain of UniProt P02453 (P02453 162-1217, chain 1 of 2): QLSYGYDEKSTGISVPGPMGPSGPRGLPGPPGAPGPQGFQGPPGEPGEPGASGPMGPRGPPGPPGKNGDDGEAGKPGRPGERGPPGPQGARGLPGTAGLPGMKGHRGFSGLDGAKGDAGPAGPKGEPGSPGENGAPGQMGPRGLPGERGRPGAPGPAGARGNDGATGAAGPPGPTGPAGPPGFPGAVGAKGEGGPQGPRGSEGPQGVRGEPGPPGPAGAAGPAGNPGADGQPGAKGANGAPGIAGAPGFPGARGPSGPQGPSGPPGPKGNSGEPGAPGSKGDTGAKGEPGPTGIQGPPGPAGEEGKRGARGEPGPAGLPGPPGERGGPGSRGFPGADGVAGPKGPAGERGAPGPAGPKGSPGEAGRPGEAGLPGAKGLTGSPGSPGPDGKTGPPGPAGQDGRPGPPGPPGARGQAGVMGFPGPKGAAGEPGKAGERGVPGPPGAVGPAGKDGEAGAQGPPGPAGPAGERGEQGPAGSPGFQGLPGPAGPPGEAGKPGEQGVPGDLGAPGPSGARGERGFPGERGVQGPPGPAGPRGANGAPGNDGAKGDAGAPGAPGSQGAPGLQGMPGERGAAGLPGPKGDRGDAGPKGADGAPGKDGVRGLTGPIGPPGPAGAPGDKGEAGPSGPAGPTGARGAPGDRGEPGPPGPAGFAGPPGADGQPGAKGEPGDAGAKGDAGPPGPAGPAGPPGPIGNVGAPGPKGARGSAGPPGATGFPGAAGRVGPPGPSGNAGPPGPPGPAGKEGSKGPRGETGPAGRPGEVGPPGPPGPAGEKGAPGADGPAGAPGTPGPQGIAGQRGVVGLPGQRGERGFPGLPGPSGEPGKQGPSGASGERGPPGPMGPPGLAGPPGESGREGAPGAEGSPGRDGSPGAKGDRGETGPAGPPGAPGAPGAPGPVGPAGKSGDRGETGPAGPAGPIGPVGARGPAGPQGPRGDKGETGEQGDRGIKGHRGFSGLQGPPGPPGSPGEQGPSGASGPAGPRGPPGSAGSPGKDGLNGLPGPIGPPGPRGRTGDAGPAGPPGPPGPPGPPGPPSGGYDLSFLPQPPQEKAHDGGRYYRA
Chain of UniProt P02453 (P02465 80-1117, chain 2 of 2, further chain): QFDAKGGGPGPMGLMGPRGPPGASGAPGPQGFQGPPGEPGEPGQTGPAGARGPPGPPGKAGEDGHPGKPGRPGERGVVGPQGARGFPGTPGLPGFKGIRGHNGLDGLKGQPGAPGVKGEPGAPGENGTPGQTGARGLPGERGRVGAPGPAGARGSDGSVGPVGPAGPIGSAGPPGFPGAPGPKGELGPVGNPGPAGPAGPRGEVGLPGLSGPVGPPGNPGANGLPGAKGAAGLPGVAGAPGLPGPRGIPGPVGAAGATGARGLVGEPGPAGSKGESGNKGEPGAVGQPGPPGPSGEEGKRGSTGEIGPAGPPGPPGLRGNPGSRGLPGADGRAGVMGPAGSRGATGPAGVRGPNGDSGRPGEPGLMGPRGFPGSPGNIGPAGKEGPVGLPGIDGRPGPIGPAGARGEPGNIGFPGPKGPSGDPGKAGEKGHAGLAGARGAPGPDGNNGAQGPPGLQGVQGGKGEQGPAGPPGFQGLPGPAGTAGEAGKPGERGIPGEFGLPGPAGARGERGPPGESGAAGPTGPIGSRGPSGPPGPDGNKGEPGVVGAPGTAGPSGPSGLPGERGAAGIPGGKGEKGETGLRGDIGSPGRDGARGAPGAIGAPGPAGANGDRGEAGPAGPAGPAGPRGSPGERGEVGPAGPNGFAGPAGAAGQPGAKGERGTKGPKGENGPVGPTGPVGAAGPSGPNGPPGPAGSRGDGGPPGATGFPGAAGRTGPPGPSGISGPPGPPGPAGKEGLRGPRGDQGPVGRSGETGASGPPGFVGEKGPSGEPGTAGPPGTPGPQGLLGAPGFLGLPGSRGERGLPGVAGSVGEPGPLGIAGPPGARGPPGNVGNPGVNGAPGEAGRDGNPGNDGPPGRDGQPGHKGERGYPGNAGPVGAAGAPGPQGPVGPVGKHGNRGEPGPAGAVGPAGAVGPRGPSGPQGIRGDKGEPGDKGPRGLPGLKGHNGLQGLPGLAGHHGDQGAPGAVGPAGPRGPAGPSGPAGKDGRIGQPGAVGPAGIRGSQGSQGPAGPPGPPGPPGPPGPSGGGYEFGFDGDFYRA

percent retained in the collagen gel after washes: > 80%
Substance: Human VEGF165 (ligand)
